Consider one substance from publication PMC8973899.

The experiment concerns the target BD-GmSPX8 (soybean (Glycine max)).

Take AD-GmPTF1 (natural protein): the luciferase (LUC) signal of E-box-LUC in N. benthamiana leaves with PSK-GmPTF1 and PSK-GmSPX8 against PSK-GmPTF1 alone was found to be 50%; the β-galactosidase activity of yeast cells AH109 with pGBKT7-BD-GmPTF1 and pGADT7-AD-GmSPX8 against pGBKT7-BD-GmPTF1 alone turned out to be 2 times.
